Experimental data published in the supplement of paper PMC6757056.
± gives the standard deviation of the averaged measurements.

B1: library; a variant is named by its letters at N, in order (parent)
chain: GCUGUCACCGGUGUAUUACCCUAGUGGUCGACCGGUCUGAUGAGUCUNNNNNNAGACGAAACAGC

How the values were obtained:
[1] = variants of: B1; test: normalized RNA/DNA level with ligand (relative to sTRSVctl = 100) (log10 (% of sTRSVctl)); ligand: hypoxanthine (xanthine aptamer); higher = less ribozyme self-cleavage, higher mRNA level; conditions: ligand concentration (+) RNA-Seq: 5 mM, HEK293T, reporter: mCherry (pCS4076), ligand present: yes
Outline: (§1)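 HEK293T cells received ligand, where used, 1 h before being transfected with 4 µg per 6-well well of library plasmids encoding reporter-linked ribozyme switches. After 72 h, RNA was extracted with EDTA and sequenced. RNA level was derived from RNA reads per DNA read, normalized to a spiked-in non-cleaving sequence or the top sequences, then scaled and log-transformed. Values were ×100 then log10, the top set was 25 sequences, and the minimum was 100 DNA reads.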

[2] = variants of: B1; test: normalized RNA/DNA level without ligand (relative to sTRSVctl = 100) (log10 (% of sTRSVctl)); ligand: hypoxanthine (xanthine aptamer); higher = less ribozyme self-cleavage, higher mRNA level; conditions: HEK293T, reporter: mCherry (pCS4076), ligand present: no
Outline: as §1

Variant	normalized RNA/DNA level with ligand (log10) [1]	normalized RNA/DNA level without ligand (log10) [2]
CGCGAC	1.97 ± 0.067	1.75 ± 0.059
CGCGAU	1.904 ± 0.0019	1.79 ± 0.036
CGCGAA	1.87 ± 0.029	1.7 ± 0.028
CGCGAG	1.84 ± 0.06	1.67 ± 0.011
UGGCGG	1.97 ± 0.14	1.69 ± 0.024
UGGCGU	1.961 ± 0.015	1.68 ± 0.064
UGGCGC	2 ± 0.04	2 ± 0.027
GGCGGC	1.885 ± 0.015	1.525 ± 0.0082
GGCGGU	1.957 ± 0.014	1.949 ± 0.017
GGCGGG	1.93 ± 0.034	1.83 ± 0.061
AGCCAC	1.931 ± 0.014	1.8318 ± 6.2e-05
AGCUUU	1.94 ± 0.032	1.908 ± 0.0022
AGCUUA	1.91 ± 0.057	1.85 ± 0.0089
UGCAUC	2.02 ± 0.031	2.04 ± 0.052
UGCAUG	1.9 ± 0.028	1.75 ± 0.024
UGCAUU	1.981 ± 0.01	1.88 ± 0.018
UGCAUA	1.964 ± 0.0062	1.83 ± 0.022
GGGCGA	1.99 ± 0.057	1.88 ± 0.038
GGGCGU	2 ± 0.0057	1.96 ± 0.049
GGGCGC	1.929 ± 0.013	1.7 ± 0.032
UGCUGC	1.972 ± 0.011	1.958 ± 0.006
UGCUGU	1.95 ± 0.0027	1.92 ± 0.03
UGCUGG	1.95 ± 0.04	1.707 ± 0.011

Variant	normalized RNA/DNA level with ligand (log10) [1]	normalized RNA/DNA level without ligand (log10) [2]
GGCUUC	1.99 ± 0.03	1.98 ± 0.041
GGCUUU	2.025 ± 0.0095	1.982 ± 0.006
GGCUUG	1.93 ± 0.071	1.66 ± 0.04
GGCUUA	1.967 ± 0.014	1.88 ± 0.025
UGCGCA	1.94 ± 0.034	1.82 ± 0.052
UGCGCC	1.989 ± 0.0081	1.93 ± 0.065
UGCGCU	1.966 ± 0.0057	1.93 ± 0.023
UGCGUC	1.989 ± 0.0044	2.031 ± 0.0052
UGCGUU	1.986 ± 0.0098	1.921 ± 0.0049
UGCGUG	1.88 ± 0.027	1.68 ± 0.084
UGGAUC	1.99 ± 0.04	1.95 ± 0.027
UGGAUA	1.96 ± 0.042	1.84 ± 0.02
UGGAUU	1.97 ± 0.021	1.824 ± 0.0038
CGGCUU	2.05 ± 0.038	1.93 ± 0.02
CGGCUC	2.04 ± 0.061	2.037 ± 0.017
CGGCUG	1.97 ± 0.037	1.889 ± 0.0029
CGGCUA	1.935 ± 0.017	1.67 ± 0.031
CGCCGA	2.04 ± 0.052	1.89 ± 0.042
CGCCGG	1.913 ± 0.0023	1.61 ± 0.065
CGCCGU	1.986 ± 0.014	2 ± 0.043
CGCCGC	1.97 ± 0.063	1.923 ± 0.0072
AGCAUC	2.07 ± 0.038	1.96 ± 0.025
CGGACC	1.94 ± 0.037	1.94 ± 0.049

Variant	normalized RNA/DNA level with ligand (log10) [1]	normalized RNA/DNA level without ligand (log10) [2]
CGGACU	1.95 ± 0.042	1.79 ± 0.024
CGGACG	2.01 ± 0.03	1.72 ± 0.043
UGGACA	1.95 ± 0.021	1.812 ± 0.0084
UGGACU	1.93 ± 0.033	1.9 ± 0.032
UGGACC	1.98 ± 0.049	1.95 ± 0.017
GGCCCA	1.95 ± 0.026	1.97 ± 0.024
GGCCCU	2.037 ± 0.02	2 ± 0.034
GGCCCG	1.974 ± 0.011	1.88 ± 0.03
GGCCCC	1.95 ± 0.12	1.97 ± 0.021
CGCCCU	2.077 ± 0.0049	1.952 ± 0.014
CGCCCC	1.971 ± 0.013	1.922 ± 0.0052
CGCCCA	1.96 ± 0.06	1.92 ± 0.041
CGCCCG	1.958 ± 0.0098	1.915 ± 0.005
UGCCGU	1.9 ± 0.027	1.74 ± 0.026
UGCCGA	1.94 ± 0.024	1.678 ± 0.014
UGCCGC	2.01 ± 0.032	1.927 ± 0.014
AGGCAC	1.94 ± 0.021	1.83 ± 0.042
AGGCAA	1.886 ± 0.0036	1.74 ± 0.036
GGCACC	1.92 ± 0.06	1.85 ± 0.021
GGCACG	1.92 ± 0.022	1.66 ± 0.029
GGCACU	2.011 ± 0.0022	1.99 ± 0.025
CGCUAU	1.91 ± 0.092	1.78 ± 0.028
CGCUAC	1.86 ± 0.041	1.74 ± 0.074

Variant	normalized RNA/DNA level with ligand (log10) [1]	normalized RNA/DNA level without ligand (log10) [2]
CGCUAA	1.91 ± 0.061	1.71 ± 0.028
CGCGGC	1.99 ± 0.042	1.92 ± 0.034
CGCGGA	2 ± 0.046	1.863 ± 0.0046
CGCGGU	1.96 ± 0.025	1.87 ± 0.026
AGCUGU	1.938 ± 0.0047	1.75 ± 0.028
GGCAUA	1.941 ± 0.0052	1.86 ± 0.032
GGCAUU	1.958 ± 0.0075	1.925 ± 0.0063
GGCAUC	1.97 ± 0.074	1.91 ± 0.057
CGCUGG	1.889 ± 0.0061	1.42 ± 0.024
CGCUGU	1.94 ± 0.06	1.9375 ± 0.00087
CGGCGG	1.889 ± 0.0076	1.48 ± 0.11
CGGCGA	1.95 ± 0.029	1.743 ± 0.017
CGGCGU	1.929 ± 0.017	1.91 ± 0.06
CGGCGC	2.005 ± 0.013	1.93 ± 0.064
UGGAAG	1.871 ± 0.018	1.556 ± 0.01
UGGAAA	1.91 ± 0.02	1.7 ± 0.039
UGGAAC	1.89 ± 0.032	1.78 ± 0.034
UGCGGU	1.905 ± 0.01	1.742 ± 0.0036
UGCGGG	1.98 ± 0.11	1.754 ± 0.0048
AGCCCC	1.963 ± 0.015	1.91 ± 0.089
AGCCCU	1.94 ± 0.03	1.932 ± 0.013
GGCUCU	2.03 ± 0.066	1.99 ± 0.064
GGCUCC	1.989 ± 0.014	1.898 ± 0.018

Variant	normalized RNA/DNA level with ligand (log10) [1]	normalized RNA/DNA level without ligand (log10) [2]
GGCUCG	1.98 ± 0.027	1.834 ± 0.012
AGGCCC	1.99 ± 0.038	1.95 ± 0.044
CGCCAU	1.88 ± 0.046	1.87 ± 0.021
CGCCAA	1.94 ± 0.02	1.82 ± 0.064
CGCCAC	1.92 ± 0.043	1.84 ± 0.05
AGCGGU	1.91 ± 0.024	1.55 ± 0.049
AGCGGC	1.959 ± 0.012	1.86 ± 0.042
UGCAGC	1.98 ± 0.074	1.83 ± 0.055
CGGCAC	1.923 ± 0.016	1.733 ± 0.0076
CGGCAA	1.88 ± 0.024	1.529 ± 0.011
UGCCAU	1.909 ± 0.0083	1.817 ± 0.015
UGCCAA	1.906 ± 0.018	1.84 ± 0.021
GGCGAG	1.82 ± 0.021	1.47 ± 0.087
GGCGAA	1.92 ± 0.037	1.801 ± 0.017
GGCGAC	1.93 ± 0.12	1.83 ± 0.021
UGGCAA	1.917 ± 0.015	1.77 ± 0.03
UGGCAC	2 ± 0.034	1.913 ± 0.019
CGCACG	1.95 ± 0.089	1.87 ± 0.044
CGCACU	2 ± 0.11	1.89 ± 0.066
AGCAGU	1.83 ± 0.03	1.44 ± 0.036
AGCACU	1.96 ± 0.039	1.8853 ± 0.00075
AGCGCC	1.93 ± 0.034	1.86 ± 0.04
AGCGCA	1.94 ± 0.019	1.758 ± 0.0078
